According to US20170157198A1 (BAXALTA, published 2017):
[ ]: non-standard residue; d: D form. Aib = CC(C)(N)C(=O)O

Key:
[1] = biological target: T1, TFPI (human TFPI-1α), as coated or added in the ELISA and model assays (human, UniProt P10646 29-304, limits assumed); test: ELISA affinity (column head says EC50)
[2] = biological target: T1, TFPI (human TFPI-1α), as coated or …; test: cell-based or functional assay
murine TFPI = biological target: T2, murine TFPI (murine, UniProt O54819 29-289, limits assumed); test: not specified
T2 construct: also called murine TFPI-1
T2 sequence (looked up): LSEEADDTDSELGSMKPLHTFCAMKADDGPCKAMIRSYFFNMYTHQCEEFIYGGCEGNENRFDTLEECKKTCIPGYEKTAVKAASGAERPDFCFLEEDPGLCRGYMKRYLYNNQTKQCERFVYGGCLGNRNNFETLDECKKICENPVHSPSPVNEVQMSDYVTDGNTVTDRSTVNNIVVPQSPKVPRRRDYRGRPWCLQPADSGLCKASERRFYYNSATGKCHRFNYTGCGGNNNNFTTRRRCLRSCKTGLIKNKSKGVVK

Binder: Ac-FQSK[dP]NVHVDGYFC(linear PEG 40 kDa)RL[Aib]AKL-NH2 [JBT2404]
- EC50 [1]: 18.2 nM
- FXa Inhibition EC50 [2]: 13.4 nM

B1: JBT2329 (peptide)
peptide: FQSKPNVHVDGYFERLXAKLC
modifications: N-terminal acetyl (Ac); D-proline at 5; Aib at 17; C-terminal C(PEG), linear PEG 41.5 kD; C-terminal amide (NH2)
- binding result (murine TFPI): binds

B2: JBT2430 (peptide)
peptide: FQSKPNVHVDGYFERLXAKLK
modifications: not fully specified; K(AOA) coupled to PSA (polysialic acid) aldehyde; D-proline at 5; Aib at 17
- FXa Inhibition EC50 [2]: 9 nM
